The supplement of paper PMC10567573
± gives the standard deviation.

Experiment: protein stability index of a GFP-peptide fusion (GPS, HEK-293T) (PSI 1-6); higher = more stable
Conditions: c terminus: a fixed tail appended
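Also: 24-mer peptide tiles fused after GFP, lentivirally expressed, FACS-sorted into six equal bins by GFP/DsRed ratio, decoded by Illumina sequencing, PSI is the read-weighted mean bin number.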

Sequence: EFTIRDLQRLGELQSELAGVADFS [INTS4]
- protein stability index (treatment: DMSO): 3.3 ± 0.17
- protein stability index (treatment: MLN4924 1 uM, 8 h): 3.42 ± 0.48

Sequence: YETKKHLVQLPNINRVSTCYSEEI [PPEF2]
- protein stability index (treatment: DMSO): 3.33 ± 0.32
- protein stability index (treatment: MLN4924 1 uM, 8 h): 3.23 ± 0.53

Sequence: RDAGATPSAAGAPASAPGEPRQRR [ANKRD9]
- protein stability index (treatment: DMSO): 5.57 ± 0.27
- protein stability index (treatment: MLN4924 1 uM, 8 h): 5.59 ± 0.19

Sequence: GPGDGPPEIAQNFSAPDPPRPRPV [SMTNL2]
- protein stability index (treatment: DMSO): 5.05 ± 0.19
- protein stability index (treatment: MLN4924 1 uM, 8 h): 5.03 ± 0.24

Sequence: GIQQLLQAEKRAAEKVSEARKRKN [ATP6V1G1]
- protein stability index (treatment: DMSO): 4.12 ± 0.62
- protein stability index (treatment: MLN4924 1 uM, 8 h): 3.84 ± 0.74

Sequence: VPNAKKLRRKEQLWEKLAKQGELP [NOP53]
- protein stability index (treatment: DMSO): 3.35 ± 0.33
- protein stability index (treatment: MLN4924 1 uM, 8 h): 3.51 ± 0.39

Sequence: ELLKEAELIRNIQELLKRTIMQAV [TEKT4]
- protein stability index (treatment: DMSO): 2.4 ± 0.2
- protein stability index (treatment: MLN4924 1 uM, 8 h): 2.27 ± 0.31

Sequence: RERKKLVLENLEDSCVLTGPDDSL [TRIB3]
- protein stability index (treatment: DMSO): 4.91 ± 0.26
- protein stability index (treatment: MLN4924 1 uM, 8 h): 4.95 ± 0.36

Sequence: PSASLGKASSRKPFGILSPNVLCS [FBXO34]
- protein stability index (treatment: DMSO): 2.71 ± 0.23
- protein stability index (treatment: MLN4924 1 uM, 8 h): 2.8 ± 0.11

Sequence: MTAPAGPRGSETERLLTPNPGYGT [MCOLN1]
- protein stability index (treatment: DMSO): 4.23 ± 0.22
- protein stability index (treatment: MLN4924 1 uM, 8 h): 4.2 ± 0.42

Sequence: QVGRGLRYIHSMSLVHMDIKPSNI [WEE1]
- protein stability index (treatment: DMSO): 2.15 ± 0.3
- protein stability index (treatment: MLN4924 1 uM, 8 h): 2.08 ± 0.25

Sequence: KSELSDGIAILVGSNDRVQGVISQ [TRIM55]
- protein stability index (treatment: DMSO): 3.46 ± 0.31
- protein stability index (treatment: MLN4924 1 uM, 8 h): 3.52 ± 0.34

Sequence: TLPKSLSLPTTAPSNSSSLTLSGI [MYBL2]
- protein stability index (treatment: DMSO): 3.87 ± 0.12
- protein stability index (treatment: MLN4924 1 uM, 8 h): 3.83 ± 0.28

Sequence: RAESTANAGQSDNRSLAEACSEGD [ANKRD17]
- protein stability index (treatment: DMSO): 5.55 ± 0.24
- protein stability index (treatment: MLN4924 1 uM, 8 h): 5.53 ± 0.16

Sequence: EKAMAEWVKQQAEREAEKEQKRLE [SDE2]
- protein stability index (treatment: DMSO): 5.5 ± 0.34
- protein stability index (treatment: MLN4924 1 uM, 8 h): 5.57 ± 0.18

Sequence: NSASDPSLKDGLSDSDSELSSSEG [PSD2]
- protein stability index (treatment: DMSO): 5.69 ± 0.14
- protein stability index (treatment: MLN4924 1 uM, 8 h): 5.61 ± 0.19

Sequence: KWTRVASMSTRRLGVAVAVLGGFL [KLHL20]
- protein stability index (treatment: DMSO): 2.18 ± 0.11
- protein stability index (treatment: MLN4924 1 uM, 8 h): 2.08 ± 0.13

Sequence: NVLKIAPESAIKFMAYEQIKRLVG [SLC25A25]
- protein stability index (treatment: DMSO): 3.07 ± 0.54
- protein stability index (treatment: MLN4924 1 uM, 8 h): 3.04 ± 0.67

Sequence: ASHNGISYKDLDVIFGVELPGNEE [TENT5D]
- protein stability index (treatment: DMSO): 4.03 ± 0.16
- protein stability index (treatment: MLN4924 1 uM, 8 h): 4.01 ± 0.13

Sequence: HARTHPQTALLESSCENKRADLVF [MATN2]
- protein stability index (treatment: DMSO): 4.09 ± 0.46
- protein stability index (treatment: MLN4924 1 uM, 8 h): 4.02 ± 0.19

Sequence: RILVGNRLHLAFKRQVPTEQARAY [RAB40C]
- protein stability index (treatment: DMSO): 2.29 ± 0.26
- protein stability index (treatment: MLN4924 1 uM, 8 h): 2.56 ± 0.27

Sequence: RAPQLHLEYRFYEQLGSGDGIPQV [CSNK1G3]
- protein stability index (treatment: DMSO): 3.36 ± 0.21
- protein stability index (treatment: MLN4924 1 uM, 8 h): 3.34 ± 0.1

Sequence: SWARQESLQERKQALYEYARRRFT [AUP1]
- protein stability index (treatment: DMSO): 3.8 ± 0.17
- protein stability index (treatment: MLN4924 1 uM, 8 h): 3.81 ± 0.12

Sequence: QRLIKKVQEAVLDKWVNDPHRMDR [GOLPH3]
- protein stability index (treatment: DMSO): 2.34 ± 0.19
- protein stability index (treatment: MLN4924 1 uM, 8 h): 2.27 ± 0.2

Sequence: LGLETLKITDFQLHASTVKRYGLG [CPXM2]
- protein stability index (treatment: DMSO): 2.61 ± 0.52
- protein stability index (treatment: MLN4924 1 uM, 8 h): 2.46 ± 0.12

Sequence: ICAAAGRMGATMAAINSIYSNTDA [GLT8D2]
- protein stability index (treatment: DMSO): 2.26 ± 0.43
- protein stability index (treatment: MLN4924 1 uM, 8 h): 2.2 ± 0.34

Sequence: VFSFGKHYWELDVDNSCDWALGVC [TRIM43]
- protein stability index (treatment: DMSO): 2.54 ± 0.085
- protein stability index (treatment: MLN4924 1 uM, 8 h): 2.54 ± 0.39

Sequence: MELKVGDFGLAARLEPLEHRRRTI [PLK2]
- protein stability index (treatment: DMSO): 3.23 ± 0.16
- protein stability index (treatment: MLN4924 1 uM, 8 h): 3.43 ± 0.25

Sequence: SALSDTEIQREIGISNALHRLKLR [PPFIA4]
- protein stability index (treatment: DMSO): 4.2 ± 0.27
- protein stability index (treatment: MLN4924 1 uM, 8 h): 4.17 ± 0.25

Sequence: LEEGDELQLAIPRENAQISLDGDV [TNFSF13B]
- protein stability index (treatment: DMSO): 5.43 ± 0.083
- protein stability index (treatment: MLN4924 1 uM, 8 h): 5.29 ± 0.12

Sequence: RVTNVGSLLLTPQENESLFTFLGK [WASL]
- protein stability index (treatment: DMSO): 2.84 ± 0.27
- protein stability index (treatment: MLN4924 1 uM, 8 h): 3.19 ± 0.27

Sequence: NSKEDAFSGTDWMLEKMDLKEFDL [ATF4]
- protein stability index (treatment: DMSO): 4.6 ± 0.26
- protein stability index (treatment: MLN4924 1 uM, 8 h): 4.55 ± 0.2

Sequence: RCEELEDARYKLHHHLHKTLREIT [TEKT4]
- protein stability index (treatment: DMSO): 2.81 ± 0.29
- protein stability index (treatment: MLN4924 1 uM, 8 h): 2.8 ± 0.25

Sequence: QSSPSFAEKCLDFLVDMFNDEIEE [INTS4]
- protein stability index (treatment: DMSO): 2.87 ± 0.1
- protein stability index (treatment: MLN4924 1 uM, 8 h): 3.18 ± 0.2

Sequence: EWNEKVTQSDLYKKTQETLSQAGQ [TPD52L2]
- protein stability index (treatment: DMSO): 4.39 ± 0.35
- protein stability index (treatment: MLN4924 1 uM, 8 h): 4.4 ± 0.17

Sequence: IVGIVEKGNRTARIIDKPRVIEVL [SEPHS2]
- protein stability index (treatment: DMSO): 2.56 ± 0.29
- protein stability index (treatment: MLN4924 1 uM, 8 h): 2.27 ± 0.49

Sequence: LFSDPRSTRLTRIHLREDLVQDQD [ZER1]
- protein stability index (treatment: DMSO): 4.53 ± 0.24
- protein stability index (treatment: MLN4924 1 uM, 8 h): 4.55 ± 0.09

Sequence: QIVTKKIDLSHVTSKCGSLKNIRH [MAP2]
- protein stability index (treatment: DMSO): 2.67 ± 0.039
- protein stability index (treatment: MLN4924 1 uM, 8 h): 2.71 ± 0.2

Sequence: LKVTGKPDAETLKVMKQPRCGVPD [MMP1]
- protein stability index (treatment: DMSO): 4.47 ± 0.3
- protein stability index (treatment: MLN4924 1 uM, 8 h): 4.49 ± 0.15

Sequence: RKDHLKNHLQTHDPNKMAFGCEEC [PLAGL1]
- protein stability index (treatment: DMSO): 4.77 ± 0.16
- protein stability index (treatment: MLN4924 1 uM, 8 h): 4.93 ± 0.54

Sequence: SDSPDAADSTSFDVQLGDIILTAT [PPTC7]
- protein stability index (treatment: DMSO): 3.98 ± 0.27
- protein stability index (treatment: MLN4924 1 uM, 8 h): 4.01 ± 0.18

Sequence: ADTTTGSAAGPPLSEDDKLQGAAS [EHMT1]
- protein stability index (treatment: DMSO): 5.46 ± 0.23
- protein stability index (treatment: MLN4924 1 uM, 8 h): 5.51 ± 0.18

Sequence: SAHPVEVFSFDLHEPLSKERVEAF [TMEM175]
- protein stability index (treatment: DMSO): 3.82 ± 0.19
- protein stability index (treatment: MLN4924 1 uM, 8 h): 3.82 ± 0.3

Sequence: FLLVLAVVAGDTVSTGSTDNSPTS [ADAMTSL2]
- protein stability index (treatment: DMSO): 2.5 ± 0.45
- protein stability index (treatment: MLN4924 1 uM, 8 h): 2.28 ± 0.43

Sequence: DEGGFTCFFRDHSYQEEAAMELKV [MOG]
- protein stability index (treatment: DMSO): 3.57 ± 0.26
- protein stability index (treatment: MLN4924 1 uM, 8 h): 3.7 ± 0.34

Sequence: IHTGERPYKCPECGKSFSRSSHLV [ZNF263]
- protein stability index (treatment: DMSO): 2.66 ± 0.45
- protein stability index (treatment: MLN4924 1 uM, 8 h): 3.18 ± 0.55

Sequence: GGTPARSGTTLISVIVLDINDNAP [PCDHGC5]
- protein stability index (treatment: DMSO): 2.66 ± 1.1
- protein stability index (treatment: MLN4924 1 uM, 8 h): 2.64 ± 1.6

Sequence: PGPREALSQLRVLCCEWLRPEKHT [ZNF232]
- protein stability index (treatment: DMSO): 2.36 ± 0.21
- protein stability index (treatment: MLN4924 1 uM, 8 h): 2.15 ± 0.4

Sequence: PKWGWEQLEVTCTPYLKETLNSIW [POMT2]
- protein stability index (treatment: DMSO): 2.49 ± 0.58
- protein stability index (treatment: MLN4924 1 uM, 8 h): 2.12 ± 0.61

Sequence: TDEFRELRATVERMGLMKANHVFF [FADS1]
- protein stability index (treatment: DMSO): 2.48 ± 0.56
- protein stability index (treatment: MLN4924 1 uM, 8 h): 2.12 ± 0.21

Sequence: NDIPHSIPLEQGSSCNGPGQTTGH [FAN1]
- protein stability index (treatment: DMSO): 5.24 ± 0.18
- protein stability index (treatment: MLN4924 1 uM, 8 h): 5.23 ± 0.1
